Test results published in patent US20180217151A1.

Tests used:
[1] = target: CD14 antigen on human PBMCs (human) (UniProt P08571); experiment: flow cytometry, human PBMCs, biotinylated Fab 1 µg/mL, SA-APC, before washing; median of control (background) 0.25
[2] = target: CD14 antigen on human PBMCs (human) (UniProt P08571); experiment: flow cytometry, human PBMCs, biotinylated Fab 1 µg/mL, SA-APC, after five washing steps; enables reversible labeling: yes
[3] = target: recombinant CD14 antigen (not stated (the Fab labels human PBMCs)) (UniProt P08571); experiment: SPR (Biacore), recombinant antigen (extracellular domain) immobilized by amine coupling, Fab as analyte, 1:1 binding mass transfer model
[4] = target: CD14 antigen on human PBMCs (human) (UniProt P08571); experiment: flow cytometry, human PBMCs, biotinylated Fab 1 µg/mL, SA-APC, after five washing steps; median of control (background) 0.25; enables reversible labeling: yes
[5] = target: CD62L antigen on human PBMCs (human) (UniProt P14151); experiment: flow cytometry, human PBMCs, biotinylated Fab 1 µg/mL, SA-APC, before washing; median of control (background) 0.2
[6] = target: CD62L antigen on human PBMCs (human) (UniProt P14151); experiment: flow cytometry, human PBMCs, biotinylated Fab 1 µg/mL, SA-APC, after five washing steps; enables reversible labeling: yes
[7] = target: recombinant CD62L antigen (not stated (the Fab labels human PBMCs)) (UniProt P14151); experiment: SPR (Biacore), recombinant antigen (extracellular domain) immobilized by amine coupling, Fab as analyte, 1:1 binding mass transfer model
[8] = target: CD62L antigen on human PBMCs (human) (UniProt P14151); experiment: flow cytometry, human PBMCs, biotinylated Fab 1 µg/mL, SA-APC, after five washing steps; median of control (background) 0.2; enables reversible labeling: yes
[9] = target: CD4 antigen on human PBMCs (human) (UniProt P01730); experiment: flow cytometry on human PBMCs, after 2 mM biotin and one washing step
[10] = target: CD4 antigen on human PBMCs (human) (UniProt P01730); experiment: flow cytometry on human PBMCs, Fab multimerized with anti-Biotin-PE, before disruption
[11] = target: CD4 antigen on human PBMCs (human) (UniProt P01730); experiment: flow cytometry, human PBMCs, biotinylated Fab 1 µg/mL, SA-APC, before washing; median of control (background) 0.3
[12] = target: CD4 antigen on human PBMCs (human) (UniProt P01730); experiment: flow cytometry, human PBMCs, biotinylated Fab 1 µg/mL, SA-APC, after five washing steps; enables reversible labeling: yes
[13] = target: CD4 antigen on human PBMCs (human) (UniProt P01730); experiment: flow cytometry, human PBMCs, biotinylated Fab, SA-APC, before washing; gate at APC about 5e1; the same gate in control C prints 0,06%-#
[14] = target: recombinant CD4 antigen (not stated (the Fab labels human PBMCs)) (UniProt P01730); experiment: SPR (Biacore), recombinant antigen (extracellular domain) immobilized by amine coupling, Fab as analyte, 1:1 binding mass transfer model
[15] = target: CD4 antigen on human PBMCs (human) (UniProt P01730); experiment: flow cytometry, human PBMCs, biotinylated Fab 1 µg/mL, SA-APC, after five washing steps; median of control (background) 0.3; enables reversible labeling: yes
[16] = target: CD27 antigen on human PBMCs (human) (UniProt P26842); experiment: flow cytometry, human PBMCs, biotinylated Fab, SA-APC, before washing; gate above APC about 1
[17] = target: CD27 antigen on human PBMCs (human) (UniProt P26842); experiment: flow cytometry, human PBMCs, biotinylated Fab, SA-APC, after five washing steps; same gate above APC about 1
[18] = target: CD27 antigen on human PBMCs (human) (UniProt P26842); experiment: flow cytometry, human PBMCs, biotinylated Fab 1 µg/mL, SA-APC, before washing; median of control (background) 0.2
[19] = target: CD27 antigen on human PBMCs (human) (UniProt P26842); experiment: flow cytometry, human PBMCs, biotinylated Fab 1 µg/mL, SA-APC, after five washing steps; enables reversible labeling: no
[20] = target: recombinant CD27 antigen (not stated (the Fab labels human PBMCs)) (UniProt P26842); experiment: SPR (Biacore), recombinant antigen (extracellular domain) immobilized by amine coupling, Fab as analyte, 1:1 binding mass transfer model
[21] = target: CD27 antigen on human PBMCs (human) (UniProt P26842); experiment: flow cytometry, human PBMCs, biotinylated Fab 1 µg/mL, SA-APC, after five washing steps; median of control (background) 0.2; enables reversible labeling: no

Sequence of recombinant CD62L antigen (not stated (the Fab labels human PBMCs)) (P14151 39-332): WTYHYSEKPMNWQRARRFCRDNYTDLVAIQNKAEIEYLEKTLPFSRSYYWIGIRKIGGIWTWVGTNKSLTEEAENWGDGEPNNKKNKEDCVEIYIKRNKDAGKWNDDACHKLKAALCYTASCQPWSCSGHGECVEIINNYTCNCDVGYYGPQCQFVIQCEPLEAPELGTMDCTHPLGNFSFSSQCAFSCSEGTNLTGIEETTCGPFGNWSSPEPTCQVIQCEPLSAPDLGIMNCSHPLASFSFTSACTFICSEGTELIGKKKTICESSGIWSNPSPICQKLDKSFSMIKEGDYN
Sequence of CD62L antigen on human PBMCs (human) (P14151 39-372): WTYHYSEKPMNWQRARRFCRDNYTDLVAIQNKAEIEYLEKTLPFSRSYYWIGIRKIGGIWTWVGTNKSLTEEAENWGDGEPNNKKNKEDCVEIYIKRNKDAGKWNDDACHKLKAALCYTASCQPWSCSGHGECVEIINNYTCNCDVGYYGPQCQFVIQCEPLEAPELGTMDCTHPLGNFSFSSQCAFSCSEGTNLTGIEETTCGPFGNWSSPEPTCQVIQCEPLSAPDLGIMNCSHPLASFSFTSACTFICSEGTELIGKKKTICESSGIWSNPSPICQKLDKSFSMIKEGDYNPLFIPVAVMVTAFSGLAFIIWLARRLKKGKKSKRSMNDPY
Sequence of recombinant CD14 antigen (not stated (the Fab labels human PBMCs)) (P08571 20-352 limits assumed): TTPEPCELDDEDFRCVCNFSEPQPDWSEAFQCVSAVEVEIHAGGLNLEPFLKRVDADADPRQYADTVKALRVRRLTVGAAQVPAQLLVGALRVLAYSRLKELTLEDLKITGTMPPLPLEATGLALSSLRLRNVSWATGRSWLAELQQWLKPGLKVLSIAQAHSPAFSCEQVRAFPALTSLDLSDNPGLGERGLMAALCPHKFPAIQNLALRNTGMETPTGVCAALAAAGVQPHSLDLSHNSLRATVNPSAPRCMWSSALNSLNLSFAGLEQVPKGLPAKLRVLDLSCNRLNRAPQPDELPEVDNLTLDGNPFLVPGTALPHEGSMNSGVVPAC
Sequence of recombinant CD27 antigen (not stated (the Fab labels human PBMCs)) (P26842 20-191): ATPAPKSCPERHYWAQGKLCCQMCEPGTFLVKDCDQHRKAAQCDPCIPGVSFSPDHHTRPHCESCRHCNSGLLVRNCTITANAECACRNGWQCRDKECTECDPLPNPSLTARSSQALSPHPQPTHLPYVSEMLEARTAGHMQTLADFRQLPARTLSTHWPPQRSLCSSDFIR
Sequence of CD27 antigen on human PBMCs (human) (P26842 20-260): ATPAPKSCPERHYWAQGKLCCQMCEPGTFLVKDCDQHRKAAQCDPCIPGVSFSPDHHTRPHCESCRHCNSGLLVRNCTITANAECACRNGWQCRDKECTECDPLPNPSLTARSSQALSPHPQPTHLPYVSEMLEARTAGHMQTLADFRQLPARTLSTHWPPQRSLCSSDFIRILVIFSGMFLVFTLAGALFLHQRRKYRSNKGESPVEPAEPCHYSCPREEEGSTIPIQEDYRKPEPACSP
Sequence of CD14 antigen on human PBMCs (human) (P08571 20-345): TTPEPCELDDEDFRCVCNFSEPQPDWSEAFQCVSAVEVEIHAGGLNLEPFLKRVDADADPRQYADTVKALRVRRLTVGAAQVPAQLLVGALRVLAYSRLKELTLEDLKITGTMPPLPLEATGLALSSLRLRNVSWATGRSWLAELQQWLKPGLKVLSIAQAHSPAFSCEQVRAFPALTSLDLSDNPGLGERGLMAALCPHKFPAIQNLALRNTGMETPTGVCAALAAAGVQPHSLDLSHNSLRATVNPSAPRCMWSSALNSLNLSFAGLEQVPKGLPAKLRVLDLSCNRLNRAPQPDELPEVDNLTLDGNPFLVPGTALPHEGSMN

Substance: TUK4 pFab
- median value (i) [1]: 152
- % median value of the detected label after Fab removal (before = 100%) [2]: 0.7%
- Kd [3]: 330 nM
- koff [3]: 0.24 s⁻¹
- kon [3]: 730000 M⁻¹ s⁻¹
- median value after Fab removal (ii) [4]: 1

Substance: 145/15 pFab
- median value (i) [5]: 35
- % median value of the detected label after Fab removal (before = 100%) [6]: 2.3%
- Kd [7]: 110 nM
- koff [7]: 0.068 s⁻¹
- kon [7]: 640000 M⁻¹ s⁻¹
- median value after Fab removal (ii) [8]: 0.82

Substance: M-T466 pFab
- median value of the PE signal after disruption with free biotin and washing [9]: 0.2
- median value of the PE signal, labeled [10]: 16.4
- median value (i) [11]: 49
- % median value of the detected label after Fab removal (before = 100%) [12]: 0.8%
- percent of cells in gate P5, column L [13]: 26.9%
- Kd [14]: 16 nM
- koff [14]: 0.016 s⁻¹
- kon [14]: 1e+06 M⁻¹ s⁻¹
- median value after Fab removal (ii) [15]: 0.37

Substance: M-T271 pFab
- percent of cells in gate P1\P2\P3, column L [16]: 38.2%
- percent of cells in gate P1\P2\P3, column LR [17]: 40.2%
- median value (i) [18]: 9.9
- % median value of the detected label after Fab removal (before = 100%) [19]: 64%
- Kd [20]: 0.96 nM
- koff [20]: 0.00026 s⁻¹
- kon [20]: 270000 M⁻¹ s⁻¹
- median value after Fab removal (ii) [21]: 6.3
